For this assay, the target named is human protein kinase R (PKR) (human) (UniProt P19525). The assay can be described thus: cell-based or functional assay.
UniProt P19525, sequence (P19525 2-551 limits assumed): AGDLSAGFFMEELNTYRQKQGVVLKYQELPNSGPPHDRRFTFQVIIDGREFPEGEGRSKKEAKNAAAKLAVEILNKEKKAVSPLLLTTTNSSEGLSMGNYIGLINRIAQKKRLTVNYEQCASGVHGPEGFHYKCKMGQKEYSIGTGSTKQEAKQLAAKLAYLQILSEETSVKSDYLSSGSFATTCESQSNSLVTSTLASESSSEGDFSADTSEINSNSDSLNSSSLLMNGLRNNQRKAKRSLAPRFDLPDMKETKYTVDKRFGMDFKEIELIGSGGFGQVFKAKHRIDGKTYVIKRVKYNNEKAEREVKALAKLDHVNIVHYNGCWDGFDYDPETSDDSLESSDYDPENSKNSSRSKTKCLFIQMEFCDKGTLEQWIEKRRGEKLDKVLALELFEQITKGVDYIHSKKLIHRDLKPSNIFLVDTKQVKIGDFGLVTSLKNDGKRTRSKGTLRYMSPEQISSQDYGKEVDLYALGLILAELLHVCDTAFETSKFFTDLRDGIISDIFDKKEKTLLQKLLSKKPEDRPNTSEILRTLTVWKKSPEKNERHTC

On to “Yaba monkey tumor virus 012 (K3 ortholog)”, for which the virus titre increase between 5 hpi and 48 hpi in HeLa cells is above 10 fold.

The values above are taken from US20210244739A1.
